Source: article PMC5811216, “Cleavage activates Dispatched for Sonic Hedgehog ligand release” (eLife, 2018)

Biological target: the molecule itself
Experiment: native gel or EMSA; NIH3T3 lysates in NativePAGE sample buffer with 1% DDM, Benzonase treated; 4-20% NativePAGE Bis-Tris gel; anti-HA western blot

| Protein | stoichiometry N |
| --- | --- |
| DispHA, wild-type murine Dispatched 1 with a carboxyl-terminal HA tag (natural protein, mouse, UniProt Q3TDN0 1-1521, looked up, Dispatched 1 (Disp), mouse; Disp1 cDNA from RIKEN introduced into Not1-Xba1 sites of pCDNA3; The lysate holds both Disp175 and the cleaved Disp145; On the native gel there was a ~480 kDa fraction (trimer) and ~750 kDa fractions; also called pCDNA3 Dispatched WT HA; pCDNA-DispHA; source: NIH3T3, transfected, in lysate (1% DDM); not shown: HA, C-terminal, kept) MAVISGSDSVLLSNGSISTSTSNPSPLSPSDGDLPAQHLGPRETPRTKASPNGCLQLNGTVKSSFLPLDNQRTPQTPTQCCHPCPYHHPVSSHSNHQECHPEAGLAASPALASCRMQPHSEYSASLCPNHSPVYQAAHCLQPSPSFCLHHPWPDHFQHQPVRQHLTIIRPSRPFKFPRSYAALLADWPVVVLGMCTLLIVVCALVGVLVPELPDFSDPLLGFEPRGTTIGQRLVTWNNMMRNTGYKATLANYPYKYAEEQARSHRDDRWSDDHHERERREVDWNFQKDSFFCDVPSDGYSRVVFASAGGETLWNLPAIKSMCDVDNSRIRSHPQFSDLCQRTTAVSCCPSWTLGNYIAILNNRSSCQKIVERDVSHTLKLLRTCAKHYQNGTLGPDCWDKAARRKDQLKCTNVPRKCTKYNAVYQILHYLVDKDFMTPKTADYAVPALKYSMLFSPTEKGESMMNIYLDNFENWNSSDGITTVTGIEFGIKHSLFQDYLLMDTVYPAIAIAIVLLIMCVYTKSMFITLMTMFAIISSLIVSYFLYRVVFNFEFFPFMNLTALIILVGIGADDAFVLCDVWNYTKFDKPRAETSEAVSVTLQHAALSMFVTSFTTAAAFYANYVSNITAIRCFGVYAGTAILVNYVLMVTWLPAVIVLHERYLLNIFTCFRKPQPQAYDKSCWAVLCQKCRRVLFAVSEASRIFFEKVLPCIVIKFRYLWLIWFLALTVGGAYIVCVNPKMKLPSLELSEFQVFRSSHPFERYDAEFKKLFMFERVHHGEELHMPITVIWGVSPEDSGDPLNPKSKGELTLDSTFNIASPASQAWILHFCQKLRNQTFFHQTEQQDFTSCFIETFKQWMENQDCDEPALYPCCSHCSFPYKQEVFELCIKKAIMELDRSTGYHLNNKTPGPRFDINDTIRAVVLEFQSTFLFTLAYEKMQQFYKEVDSWISHELSSAPEGLSRGWFVSNLEFYDLQDSLSDGTLIAMGLSVAVAFSVMLLTTWNIIISLYAIVSIAGTIFVTVGSLVLLGWELNVLESVTISVAVGLSVDFAVHYGVAYRLAPDPDREGKVIFSLSRMGSAIAMAALTTFVAGAMMMPSTVLAYTQLGTFMMLVMCVSWAFATFFFQCLCRCLGPQGTCGQIPFPTKLQCSPFSHTLSARPGDRGPSKTHAASAYSVDARGQKSQLEHEFYELQPLASHSCTSSEKTTYEEPHTCSEFFNGQAKNLRMPVPAAYSSELTKSPSSEPGSALLQSCLEQDTVCHFSLNPRCNCRDAYTHLQYGLPEIHCQQMGDSLCHKCASTAGGFVQIQSSVAPLKASHQAAEGLLHPAQHMLPPGMQNSRPRNFFLHSVQHFQAQENLGRTSTHSTDERLPRTAELSPPPSDSRSTESFQRACCHPENNQRRLCKSRDPGDTEGSGGTKSKVSGLPNQTDKEEKQVEPSLLQTDETVNSEHLNHNESNFTFSHLPGEAGCRSCPNSPQSCRSIMRSKCGTEDCQTPNLEANVPAVPTHSDLSGESLLIKTL | 3 |
| DispCSHA, cleavage site mutant (R279A, E280A) of murine Dispatched 1 with a carboxyl-terminal HA tag (natural protein, mouse, UniProt Q3TDN0 1-1521, looked up, Dispatched 1 (Disp), mouse; Disp1 cDNA from RIKEN in pCDNA3; convertase motif disrupted by R279A, E280A; also called DispHA-CS; pCDNA-DispCSHA; source: NIH3T3, transfected, in lysate (1% DDM); not shown: HA, C-terminal, kept) MAVISGSDSVLLSNGSISTSTSNPSPLSPSDGDLPAQHLGPRETPRTKASPNGCLQLNGTVKSSFLPLDNQRTPQTPTQCCHPCPYHHPVSSHSNHQECHPEAGLAASPALASCRMQPHSEYSASLCPNHSPVYQAAHCLQPSPSFCLHHPWPDHFQHQPVRQHLTIIRPSRPFKFPRSYAALLADWPVVVLGMCTLLIVVCALVGVLVPELPDFSDPLLGFEPRGTTIGQRLVTWNNMMRNTGYKATLANYPYKYAEEQARSHRDDRWSDDHHERERAAVDWNFQKDSFFCDVPSDGYSRVVFASAGGETLWNLPAIKSMCDVDNSRIRSHPQFSDLCQRTTAVSCCPSWTLGNYIAILNNRSSCQKIVERDVSHTLKLLRTCAKHYQNGTLGPDCWDKAARRKDQLKCTNVPRKCTKYNAVYQILHYLVDKDFMTPKTADYAVPALKYSMLFSPTEKGESMMNIYLDNFENWNSSDGITTVTGIEFGIKHSLFQDYLLMDTVYPAIAIAIVLLIMCVYTKSMFITLMTMFAIISSLIVSYFLYRVVFNFEFFPFMNLTALIILVGIGADDAFVLCDVWNYTKFDKPRAETSEAVSVTLQHAALSMFVTSFTTAAAFYANYVSNITAIRCFGVYAGTAILVNYVLMVTWLPAVIVLHERYLLNIFTCFRKPQPQAYDKSCWAVLCQKCRRVLFAVSEASRIFFEKVLPCIVIKFRYLWLIWFLALTVGGAYIVCVNPKMKLPSLELSEFQVFRSSHPFERYDAEFKKLFMFERVHHGEELHMPITVIWGVSPEDSGDPLNPKSKGELTLDSTFNIASPASQAWILHFCQKLRNQTFFHQTEQQDFTSCFIETFKQWMENQDCDEPALYPCCSHCSFPYKQEVFELCIKKAIMELDRSTGYHLNNKTPGPRFDINDTIRAVVLEFQSTFLFTLAYEKMQQFYKEVDSWISHELSSAPEGLSRGWFVSNLEFYDLQDSLSDGTLIAMGLSVAVAFSVMLLTTWNIIISLYAIVSIAGTIFVTVGSLVLLGWELNVLESVTISVAVGLSVDFAVHYGVAYRLAPDPDREGKVIFSLSRMGSAIAMAALTTFVAGAMMMPSTVLAYTQLGTFMMLVMCVSWAFATFFFQCLCRCLGPQGTCGQIPFPTKLQCSPFSHTLSARPGDRGPSKTHAASAYSVDARGQKSQLEHEFYELQPLASHSCTSSEKTTYEEPHTCSEFFNGQAKNLRMPVPAAYSSELTKSPSSEPGSALLQSCLEQDTVCHFSLNPRCNCRDAYTHLQYGLPEIHCQQMGDSLCHKCASTAGGFVQIQSSVAPLKASHQAAEGLLHPAQHMLPPGMQNSRPRNFFLHSVQHFQAQENLGRTSTHSTDERLPRTAELSPPPSDSRSTESFQRACCHPENNQRRLCKSRDPGDTEGSGGTKSKVSGLPNQTDKEEKQVEPSLLQTDETVNSEHLNHNESNFTFSHLPGEAGCRSCPNSPQSCRSIMRSKCGTEDCQTPNLEANVPAVPTHSDLSGESLLIKTL | 3 |
